For one substance, Precipitated Complex (cpm), PEG and percent of specifically bound ligand dissociated results are on record in US5998154.

The target of test [1] is sst4 receptor (expressed in stably transfected CHO-K1 cells, CHO-R4). Briefly: PEG precipitation of solubilised radioligand-receptor complex from CHO-R4 cells.
In test [2] the target is rat sst1 receptor (expressed in stably transfected CHO-K1 cells, CHO-R1) (rat) (UniProt P28646). Put plainly: dissociation from the receptor complex immunoprecipitated with R1-201 from CHO-R1 cells, no guanine nucleotide.
Test [3] concerns the target sst3 receptor (expressed in stably transfected CHO-K1 cells, CHO-R3). Put plainly: PEG precipitation of solubilised radioligand-receptor complex from CHO-R3 cells.
For test [4], the target named is rat sst1 receptor (expressed in stably transfected CHO-K1 cells, CHO-R1) (rat) (UniProt P28646). Briefly: PEG precipitation of solubilised radioligand-receptor complex from CHO-R1 cells.
In test [5] the target is rat sst2A receptor (expressed in stably transfected CHO-K1 cells, CHO-R2 / CHO-R2A) (rat) (UniProt P30680). Briefly: PEG precipitation of solubilised radioligand-receptor complex from CHO-R2 cells.
The target of test [6] is sst4 receptor (expressed in stably transfected CHO-K1 cells, CHO-R4). Put plainly: PEG precipitation of solubilised radioligand-receptor complex from CHO-R4 cells. This is another data set of the same source.
Test [7] has as its target rat sst2A receptor (expressed in stably transfected CHO-K1 cells, CHO-R2 / CHO-R2A) (rat) (UniProt P30680). Briefly: PEG precipitation of solubilised radioligand-receptor complex from CHO-R2 cells. This is another data set of the same source.
The target is the same in test [8]. Briefly: dissociation from the receptor complex immunoprecipitated with R2-88 from GH4C1 cells, no guanine nucleotide.
In test [9] the target is rat sst1 receptor (expressed in stably transfected CHO-K1 cells, CHO-R1) (rat) (UniProt P28646). Briefly: PEG precipitation of solubilised radioligand-receptor complex from CHO-R1 cells. The source holds these as a separate data set.
For test [10], the target named is rat sst2A receptor (expressed in stably transfected CHO-K1 cells, CHO-R2 / CHO-R2A) (rat) (UniProt P30680). Put plainly: PEG precipitation of solubilised radioligand-receptor complex from CHO-R2 cells. This is another data set of the same source.
Test [11] has as its target rat sst1 receptor (expressed in stably transfected CHO-K1 cells, CHO-R1) (rat) (UniProt P28646). Briefly: PEG precipitation of solubilised radioligand-receptor complex from CHO-R1 cells. This is another data set of the same source.
Test [12] has the same target. The test is described as above. This is another data set of the same source.
Test [13] has the same target. The description is as above. This is another data set of the same source.
Test [14] has as its target sst4 receptor (expressed in stably transfected CHO-K1 cells, CHO-R4). Briefly: PEG precipitation of solubilised radioligand-receptor complex from CHO-R4 cells. The source holds these as a separate data set.

“And” between values parts separate entries of the source, which are not always exact repeats. Equal values may be shown once. Read-outs that look alike come from different tables or passages of the source.

[125I-Tyr11]SRIF (peptide): the Precipitated Complex (cpm), PEG in [1] was 10000 cpm; in test [3], 683 cpm; in test [4], 15100 cpm; in test [5], 8490 cpm; in test [6] it was 12500 cpm; in test [7], 8840 cpm and 6330 cpm. Moreover, the Precipitated Complex (cpm), PEG is 706 cpm in [9]; 16200 cpm in test [10]; 7100 cpm in [11]; 7060 cpm in test [12]; 8350 cpm in test [13]; 4980 cpm and 10000 cpm in test [14]. Moreover, the percent of specifically bound ligand dissociated in [2] stood at 53%; in test [8], 12%.
